In PMC5560778:

Experiments:
[1] = biological target: NaV1.5 α subunit, DIV voltage clamp fluorometry construct (S1618C), labelled with MTS-TAMRA (human) (UniProt Q14524)
[2] = biological target: NaV1.5 α subunit, DIII LFS voltage clamp fluorometry construct (M1296C), labelled with MTS-TAMRA (human) (UniProt Q14524)
[3] = biological target: A1330W mutant NaV1.5 channel in the DIII-M1296C VCF construct, labelled with MTS-TAMRA (human) (UniProt Q14524)
[4] = biological target: NaV1.5 α subunit, DIII LFS voltage clamp fluorometry construct (M1296C), labelled with MTS-TAMRA (human) (UniProt Q14524); remark: listed apart in the source

Question: For “WT NaV β1 subunit (from UniProt Q07699-1 19-218) (natural protein)”, which depolarizing shift of the DIV F-V curve (voltage clamp fluorometry in oocytes), α with β1 against α alone [1] is on record?
Answer: 31.3 mV

Question: How did the depolarizing shift of the DIII F-V curve (voltage clamp fluorometry in oocytes), α with chimera against α alone [2] turn out when β3-NTM β1-C chimera was run?
Answer: 22.9 mV

B1: WT NaV β3 subunit (natural protein)
chain: FPVCVEVPSETEAVQGNPMKLRCISCMKREEVEATTVVEWFYRPEGGKDFLIYEYRNGHQEVESPFQGRLQWNGSKDLQDVSITVLNVTLNDSGLYTCNVSREFEFEAHRPFVKTTRLIPLRVTEEAGEDFTSVVSEIMMYILLVFLTLWLLIEMIYCYRKVSKAEEAAQENASDYLAIPSENKENSAVPVEE
Question: How did the depolarizing shift of the DIII F-V curve (voltage clamp fluorometry in oocytes), A1330W with β3 against A1330W alone [3] turn out when B1 was run?
Answer: 22.6 mV

Question: And the depolarizing shift of the DIII F-V curve (voltage clamp fluorometry in oocytes), α with β3 against α alone [4]?
Answer: 20.7 mV
